Experimental findings from PMC8042443 are described below.

In the test the target is GST fusion protein of the α1-syntrophin PDZ domain (UniProt Q61234). The test can be described thus: pull-down; GST fusion proteins immobilised on beads, incubated 1 to 2 h at 4 °C with lysates of MEFs expressing HA-tagged DGKζ constructs; washed at least four times with ice-cold lysis buffer; bound DGKζ detected by anti-HA immunoblot; in some panels cells were treated with vehicle, 100 nM PMA, or 1 μM Gö6976 before PMA. Background: A western blot detects proteins with antibodies after separation by electrophoresis.
GST fusion protein of the α1-syntrophin PDZ domain, sequence (Q61234 81-164): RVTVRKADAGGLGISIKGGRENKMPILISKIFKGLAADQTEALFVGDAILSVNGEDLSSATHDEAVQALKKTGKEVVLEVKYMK

HA-tagged DGKζ^M1 (all four serine residues in the MARCKS domain changed to aspartate), sequence (Q13574 whole entry, the tested form may be a part): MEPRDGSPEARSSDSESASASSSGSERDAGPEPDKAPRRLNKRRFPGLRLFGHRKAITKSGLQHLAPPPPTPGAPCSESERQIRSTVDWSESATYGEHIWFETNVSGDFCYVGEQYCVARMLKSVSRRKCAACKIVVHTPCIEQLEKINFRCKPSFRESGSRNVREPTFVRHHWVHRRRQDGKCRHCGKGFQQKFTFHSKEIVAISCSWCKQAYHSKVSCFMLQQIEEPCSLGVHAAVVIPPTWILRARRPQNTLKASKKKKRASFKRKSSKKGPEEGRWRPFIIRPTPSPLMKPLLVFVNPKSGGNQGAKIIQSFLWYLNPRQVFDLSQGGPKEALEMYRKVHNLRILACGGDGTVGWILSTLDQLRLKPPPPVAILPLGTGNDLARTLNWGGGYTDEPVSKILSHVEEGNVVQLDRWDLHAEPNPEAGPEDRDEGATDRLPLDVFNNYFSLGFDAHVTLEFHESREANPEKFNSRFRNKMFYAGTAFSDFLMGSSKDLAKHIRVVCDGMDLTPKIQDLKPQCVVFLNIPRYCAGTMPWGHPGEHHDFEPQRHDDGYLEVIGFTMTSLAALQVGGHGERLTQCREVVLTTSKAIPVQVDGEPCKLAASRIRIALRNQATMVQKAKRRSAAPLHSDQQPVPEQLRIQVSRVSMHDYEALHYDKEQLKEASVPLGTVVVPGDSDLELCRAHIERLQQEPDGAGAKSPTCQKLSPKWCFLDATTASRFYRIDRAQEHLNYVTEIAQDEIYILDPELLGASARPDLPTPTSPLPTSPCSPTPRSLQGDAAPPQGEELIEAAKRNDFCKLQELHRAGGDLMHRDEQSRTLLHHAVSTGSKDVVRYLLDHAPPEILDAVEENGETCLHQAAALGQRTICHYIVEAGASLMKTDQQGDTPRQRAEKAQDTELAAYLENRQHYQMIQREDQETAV

Consider “HA-tagged DGKζ^M1 (all four serine residues in the MARCKS domain changed to aspartate) (from UniProt Q13574 1-928) (enzyme)”, for which the fold binding against DGKζ^WT amounted to 2.5 fold.
